In patent US20180111972A1 (Stanford University, published 2018):
Read-outs that look alike come from different tables or passages of the source.

B1: PDGFRβ-His (residues 1-314 of PDGFR-β with C-terminal hexahistidine tag) (receptor)
chain: LVVTPPGPELVLNVSSTFVLTCSGSAPVVWERMSQEPPQEMAKAQDGTFSSVLTLTNLTGLDTGEYFCTHNDSRGLETDERKRLYIFVPDPTVGFLPNDAEELFIFLTEITEITIPCRVTDPQLVVTLHEKKGDVALPVPYDHQRGFSGIFEDRSYICKTTIGDREVDSDAYYVYRLQVSSINVSVNAVQTVVRQGENITLMCIVIGNEVVNFEWTYPRKESGRLVEPVTDFLLDMPYHIRSILHIPSAELEDSGTYTCNVTESVNDHQDEKAINITVVESGHHHHHH
notes: range 1-314; Monovalent form, expressed in FreeStyle 293-F cells; also called PDGRβ-His; PDGFR-His
B2: scPDGF, single-chain version of wild-type PDGF-BB, soluble, FLAG and hexahistidine tags (ligand)
chain: IAEPAMIAECKTRTEVFEISRRLIDRTNANFLVWPPCVEVQRCSGCCNNRNVQCRPTQVQLRPVQVRKIEIVRKKPIFKKATVTLEDHLACKCETVAAGSTSGSGKSSEGKGIAEPAMIAECKTRTEVFEISRRLIDRTNANFLVWPPCVEVQRCSGCCNNRNVQCRPTQVQLRPVQVRKIEIVRKKPIFKKATVTLEDHLACKCETVAA
B3: scVEGFwt, single-chain version of VEGF-A, soluble, FLAG and hexahistidine tags (ligand)
chain: DYKDDDDKEVVKFMDVYQRSYCHPIETLVDIFQEYPDEIEYIFKPSCVPLMRCGGCCNDEGLECVPTEESNITMQIMRIKPHQGQHIGEMSFLQHNKCECRPKKDGSTSGSGKSSEGKGEVVKFMDVYQRSYCHPIETLVDIFQEYPDEIEYIFKPSCVPLMRCGGCCNDEGLECVPTEESNITMQIMRIKPHQGQHIGEMSFLQHNKCECRPKKDHHHHHH
notes: Expressed in Pichia pastoris GS115; also called single-chain VEGF-A
B4: PVGS, soluble, FLAG and hexahistidine tags (designed binder)
chain: DYKDDDDKIAEPAMIAECHPIETLVDILQEYPDEIGYIFKPSCVPLMRCGGCCNNRNVQCRPTEESNITMQIMRIKPHRGQHIGEMSFLQHNKCRCETVAAGGGGSGGGGSGGGGSGGGGSEVVKFMDVYQRSYCKTRTEVFEISRRLIDATNANFLVWPPCVEVQRCSGCCNHEGLECVPTQVQLRPVQVRKIEFVRKKPIFKKATVTLEDHLACECRPKKDHHHHHH
notes: Secreted from S. cerevisiae YVH10 at 20 C and treated with Endo Hf

Experiments:
scPDGF, yeast-displayed = biological target: T1, scPDGF, yeast-displayed (human); experiment: yeast surface display of scPDGF, flow cytometry titration of PDGFRβ-His, anti-His detection
T1 chain: B2 chain
Procedure: Cells were incubated in large enough volumes to avoid ligand depletion and appropriate time to reach equilibrium. During the last hour of incubation, yeast were incubated with 1:250 dilution of chicken anti-c-Myc (Invitrogen) in PBSA. […] Yeast were washed, pelleted, and resuspended in PBSA immediately before analysis by flow cytometry using BD FACSCalibur or BD Accuri C6. Flow cytometry data were analyzed using FlowJo (v7.6.1 and v10, Treestar) or BD Accuri C6 software. Statistical analysis was performed using GraphPad Prism 6.
Bound protein was detected using fluorescently-labeled anti-His and anti-mouse-Fc antibodies.

[1] = biological target: B1; experiment: KinExA Kinetics Injection; could not be accurately determined because of the fast equilibrium time
[2] = biological target: PDGFRβ on DiscoveRx PathHunter U2OS PDGFRβ reporter cells (UniProt P09619 33-1106, limits assumed); experiment: cell-based or functional assay
[3] = biological target: B1; experiment: KinExA; calculated, could not be accurately determined because of the fast equilibrium time
[4] = biological target: B1; experiment: KinExA, equilibrium titration in solution, n-curve analysis
Procedure: (§1) For KinExA measurements, a constant amount of PDGF/VEGF ligand is titrated with differing concentrations of PDGRβ-His or VEGFR2-His. The solutions are incubated for an appropriate amount of time to allow the ligand-receptor binding reaction to reach equilibrium. The solution is then briefly exposed to a solid support containing immobilized PDGFR or VEGFR, which captures unbound ligand. The amount of ligand bound to the solid support is then detected using a fluorescently-labeled antibody. […] For each binding interaction measured, curves for two concentrations of the constant ligand are performed. By performing two experiments with fixed ligand concentrations above and below the Kd, and fitting both sets of data with a nonlinear regression analysis, a more accurate measurement for the affinity can be obtained.
(§2) Kinetic Exclusion Assay (KinExA). All experiments were performed on a KinExA 3200 instrument with siliconized flow cell (Sapidyne Instruments Inc). […] 30 μg of receptor was incubated in 1 ml of 50 mM sodium bicarbonate, 0.5 M sodium citrate buffer, pH 8.3, for 2 hr at room temperature with rocking. Beads were allowed to settle by gravity and liquid removed. Beads were blocked by incubating in 1 ml of 10 mg/ml BSA in 1 M Tris buffer, pH 8.0, for 1 hr at room temperature with rocking, and stored in blocking buffer at 4° C. for up to one week until use. Running buffer contained PBS with 10 mM imidazole and 0.02% sodium azide. Samples were prepared in running buffer with 1 mg/ml BSA. Binding reactions were prepared with a fixed concentration of PDGF/VEGF ligands and dilution series of PDGFR or VEGFR. Captured PDGF/VEGF ligands were detected using a Dylight 649-conjugated anti-FLAG antibody (Rockland) at 1:1000 dilution in sample buffer. Kinetic experiments were performed with the “Kinetics Injection” method defined in the KinExA software. Data were analyzed with KinExA Pro Software.

[5] = biological target: T2, human VEGFR on human umbilical vein endothelial cells (HUVECs) (human, UniProt P35968 20-1356); experiment: flow cytometry titration of the soluble FLAG-tagged protein on HUVECs, anti-FLAG detection
T2 construct: The phosphorylation blots on these cells detect VEGFR2
T2 sequence (P35968 20-1356 limits assumed): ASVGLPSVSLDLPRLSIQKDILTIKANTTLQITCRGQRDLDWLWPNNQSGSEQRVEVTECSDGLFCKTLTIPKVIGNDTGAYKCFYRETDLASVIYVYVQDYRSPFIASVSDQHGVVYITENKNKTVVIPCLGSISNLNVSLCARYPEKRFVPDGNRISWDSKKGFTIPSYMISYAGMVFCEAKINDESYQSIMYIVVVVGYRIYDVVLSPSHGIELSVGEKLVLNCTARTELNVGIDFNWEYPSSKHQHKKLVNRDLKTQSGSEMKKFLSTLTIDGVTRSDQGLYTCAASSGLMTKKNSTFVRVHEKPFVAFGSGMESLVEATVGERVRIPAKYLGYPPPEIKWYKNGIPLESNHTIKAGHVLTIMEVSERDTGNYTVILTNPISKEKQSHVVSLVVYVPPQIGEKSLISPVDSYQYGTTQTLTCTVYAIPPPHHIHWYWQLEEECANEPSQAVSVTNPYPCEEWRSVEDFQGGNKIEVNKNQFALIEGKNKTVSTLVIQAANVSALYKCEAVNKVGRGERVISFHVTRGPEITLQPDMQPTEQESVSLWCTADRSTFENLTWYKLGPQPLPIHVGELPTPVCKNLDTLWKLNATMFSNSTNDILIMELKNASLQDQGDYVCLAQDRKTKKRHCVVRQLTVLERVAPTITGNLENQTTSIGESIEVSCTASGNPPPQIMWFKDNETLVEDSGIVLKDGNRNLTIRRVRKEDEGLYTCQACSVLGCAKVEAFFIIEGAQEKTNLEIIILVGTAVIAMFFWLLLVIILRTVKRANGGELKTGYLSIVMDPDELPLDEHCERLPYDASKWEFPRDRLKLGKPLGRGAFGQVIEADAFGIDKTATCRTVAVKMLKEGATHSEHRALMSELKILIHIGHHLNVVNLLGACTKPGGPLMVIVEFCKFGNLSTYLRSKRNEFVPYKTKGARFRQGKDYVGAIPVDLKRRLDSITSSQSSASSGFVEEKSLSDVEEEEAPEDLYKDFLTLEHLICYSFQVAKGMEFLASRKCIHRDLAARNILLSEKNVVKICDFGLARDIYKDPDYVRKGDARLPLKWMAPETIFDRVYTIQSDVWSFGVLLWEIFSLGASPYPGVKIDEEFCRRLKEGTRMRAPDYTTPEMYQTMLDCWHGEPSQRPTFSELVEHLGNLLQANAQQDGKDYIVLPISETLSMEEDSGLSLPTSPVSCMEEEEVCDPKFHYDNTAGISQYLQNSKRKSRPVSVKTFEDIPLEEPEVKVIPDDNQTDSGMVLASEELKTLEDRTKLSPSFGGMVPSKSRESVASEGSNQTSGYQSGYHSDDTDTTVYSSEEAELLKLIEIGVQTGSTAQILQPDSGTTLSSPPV
Procedure: (§3) To test binding to VEGFR, human umbilical vein endothelial cells (HUVECs) and murine angiosarcoma endothelial cells (SVR) were used.
(§4) Cell-binding assay. Varying concentrations of scPDGF, scVEGF, and PDGF/VEGF ligands were incubated with 25,000 PDGFR- or VEGFR-expressing cells in binding buffer (20 mM Tris pH 7.5 with 1 mM MgCl₂, 1 mM MnCl₂, 2 mM CaCl₂, 100 mM NaCl, and 1 mg/ml BSA) for 5 hr (BJ-5ta, NIH/3T3) or 3 hr (HUVEC, SVR) at 4° C. Cells were washed and pelleted, then incubated with 1:100 R-PE-conjugated anti-FLAG antibody (Prozyme) for 15 min on ice. Cells were washed, pelleted, and resuspended in binding buffer immediately before analysis by flow cytometry using BD Accuri C6. Flow cytometry data were analyzed using BD Accuri C6 software, and statistical analysis was performed using GraphPad Prism 6.

[6] = biological target: T2, human VEGFR on human umbilical vein …; experiment: flow cytometry on HUVECs, soluble ligand titrated 3 h at 4 C, anti-FLAG-PE
[7] = biological target: T3, mouse VEGFR on SVR murine angiosarcoma endothelial cells (mouse); experiment: flow cytometry on SVR cells, soluble ligand titrated 3 h at 4 C, anti-FLAG-PE
T3 construct: whole, on cells
T3 sequence (P35918 20-1345): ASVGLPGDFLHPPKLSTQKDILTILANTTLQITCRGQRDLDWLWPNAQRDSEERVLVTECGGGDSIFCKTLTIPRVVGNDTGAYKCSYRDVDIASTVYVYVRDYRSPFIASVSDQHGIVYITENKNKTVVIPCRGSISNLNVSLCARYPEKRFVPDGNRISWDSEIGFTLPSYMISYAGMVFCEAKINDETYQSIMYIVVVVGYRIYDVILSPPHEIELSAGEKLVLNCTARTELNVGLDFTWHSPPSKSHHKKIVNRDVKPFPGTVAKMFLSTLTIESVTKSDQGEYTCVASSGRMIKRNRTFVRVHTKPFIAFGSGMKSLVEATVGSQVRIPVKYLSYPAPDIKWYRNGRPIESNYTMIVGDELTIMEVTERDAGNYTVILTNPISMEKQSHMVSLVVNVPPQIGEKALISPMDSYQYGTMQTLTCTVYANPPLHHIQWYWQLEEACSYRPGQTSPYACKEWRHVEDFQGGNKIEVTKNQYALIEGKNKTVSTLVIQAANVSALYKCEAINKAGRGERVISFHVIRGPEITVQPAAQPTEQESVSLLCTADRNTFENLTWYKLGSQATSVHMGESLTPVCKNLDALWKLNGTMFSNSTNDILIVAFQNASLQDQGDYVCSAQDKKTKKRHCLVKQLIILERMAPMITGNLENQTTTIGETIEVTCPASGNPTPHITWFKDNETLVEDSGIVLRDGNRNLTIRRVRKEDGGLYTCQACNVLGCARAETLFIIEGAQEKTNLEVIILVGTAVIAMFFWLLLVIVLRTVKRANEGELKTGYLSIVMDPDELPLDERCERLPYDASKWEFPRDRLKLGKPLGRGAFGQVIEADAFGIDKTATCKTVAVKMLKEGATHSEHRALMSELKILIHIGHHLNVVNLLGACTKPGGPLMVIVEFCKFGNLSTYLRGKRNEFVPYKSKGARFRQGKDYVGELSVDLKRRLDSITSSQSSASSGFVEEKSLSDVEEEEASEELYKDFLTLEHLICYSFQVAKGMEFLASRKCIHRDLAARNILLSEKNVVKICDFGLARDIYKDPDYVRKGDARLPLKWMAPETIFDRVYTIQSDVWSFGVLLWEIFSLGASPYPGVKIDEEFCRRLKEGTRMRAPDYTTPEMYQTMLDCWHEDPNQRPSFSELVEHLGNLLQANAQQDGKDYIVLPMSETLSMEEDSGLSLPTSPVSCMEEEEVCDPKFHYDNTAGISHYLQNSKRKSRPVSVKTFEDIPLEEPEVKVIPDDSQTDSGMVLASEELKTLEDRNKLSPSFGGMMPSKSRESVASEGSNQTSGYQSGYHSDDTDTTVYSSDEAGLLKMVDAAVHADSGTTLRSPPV
Procedure: as §3, §4

[8] = biological target: T2, human VEGFR on human umbilical vein …; experiment: flow cytometry on HUVECs, soluble ligand titrated 3 h at 4 C, anti-FLAG-PE; remark: listed apart in the source
Procedure: as §3, §4

[9] = biological target: T3, mouse VEGFR on SVR murine angiosarcoma …; experiment: flow cytometry titration of the soluble FLAG-tagged protein on SVR cells, anti-FLAG detection
Procedure: as §3, §4

[10] = biological target: T4, VEGFR2-His (residues 1-764 of VEGFR2, Ig-like domains 1-7, with hexahistidine tag) (human, UniProt P35968 20-764); experiment: KinExA
T4 construct: range 1-764; Monomeric form, expressed in FreeStyle 293-F cells; also called VEGFR-His
T4 sequence (P35968 other isoform, or with tags, fused parts or gaps limits assumed, form in doubt): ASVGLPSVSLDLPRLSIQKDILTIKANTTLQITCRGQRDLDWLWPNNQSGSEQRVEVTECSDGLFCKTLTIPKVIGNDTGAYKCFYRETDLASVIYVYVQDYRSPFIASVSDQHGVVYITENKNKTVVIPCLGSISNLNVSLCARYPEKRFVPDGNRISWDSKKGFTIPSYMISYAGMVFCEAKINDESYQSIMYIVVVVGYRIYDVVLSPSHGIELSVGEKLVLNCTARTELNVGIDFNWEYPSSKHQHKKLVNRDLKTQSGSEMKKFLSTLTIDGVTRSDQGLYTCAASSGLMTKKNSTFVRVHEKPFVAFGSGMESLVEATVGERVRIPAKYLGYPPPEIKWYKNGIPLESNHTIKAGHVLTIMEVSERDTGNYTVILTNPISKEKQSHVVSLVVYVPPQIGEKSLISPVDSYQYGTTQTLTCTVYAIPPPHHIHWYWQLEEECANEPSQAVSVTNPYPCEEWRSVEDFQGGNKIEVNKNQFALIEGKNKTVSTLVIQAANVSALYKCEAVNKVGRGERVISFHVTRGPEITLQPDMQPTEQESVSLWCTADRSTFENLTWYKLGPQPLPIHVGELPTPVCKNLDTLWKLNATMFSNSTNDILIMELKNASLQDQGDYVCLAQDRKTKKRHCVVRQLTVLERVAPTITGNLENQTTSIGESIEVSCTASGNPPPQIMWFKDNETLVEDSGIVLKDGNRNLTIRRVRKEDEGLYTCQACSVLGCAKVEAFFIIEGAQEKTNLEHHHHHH
Procedure: as §1
(§5) Kinetic Exclusion Assay (KinExA). All experiments were performed on a KinExA 3200 instrument with siliconized flow cell (Sapidyne Instruments Inc). […] 30 μg of receptor was incubated in 1 ml of 50 mM sodium bicarbonate, 0.5 M sodium citrate buffer, pH 8.3, for 2 hr at room temperature with rocking. Beads were allowed to settle by gravity and liquid removed. […] Captured PDGF/VEGF ligands were detected using a Dylight 649-conjugated anti-FLAG antibody (Rockland) at 1:1000 dilution in sample buffer. […] Data were analyzed with KinExA Pro Software.

[11] = biological target: B1; experiment: KinExA
Procedure: as §1, §5

[12] = biological target: T3, mouse VEGFR on SVR murine angiosarcoma …; experiment: flow cytometry on SVR cells
Procedure: as §3, §4

[13] = biological target: T2, human VEGFR on human umbilical vein …; experiment: cell-based or functional assay
[14] = biological target: T4, VEGFR2-His (residues 1-764 of VEGFR2, …); experiment: KinExA Kinetics Injection
Procedure: (§6) Additionally, the kinetic parameter kₒₙ can be determined by using a “kinetics injection” experiment. A constant concentration of PDGF/VEGF ligand is injected with an equal volume of differing concentrations of PDGRβ-His or VEGFR2-His. The two solutions are allowed to mix briefly (several seconds) in the time required for the instrument to deliver the mixture to the detection bead column. The pre-equilibrium concentrations of free ligand is fit to the standard bimolecular rate equation to obtain kₒₙ.
(§7) Kinetic Exclusion Assay (KinExA). All experiments were performed on a KinExA 3200 instrument with siliconized flow cell (Sapidyne Instruments Inc). […] 30 μg of receptor was incubated in 1 ml of 50 mM sodium bicarbonate, 0.5 M sodium citrate buffer, pH 8.3, for 2 hr at room temperature with rocking. Beads were allowed to settle by gravity and liquid removed. Beads were blocked by incubating in 1 ml of 10 mg/ml BSA in 1 M Tris buffer, pH 8.0, for 1 hr at room temperature with rocking, and stored in blocking buffer at 4° C. for up to one week until use. Running buffer contained PBS with 10 mM imidazole and 0.02% sodium azide. Samples were prepared in running buffer with 1 mg/ml BSA. Binding reactions were prepared with a fixed concentration of PDGF/VEGF ligands and dilution series of PDGFR or VEGFR. Captured PDGF/VEGF ligands were detected using a Dylight 649-conjugated anti-FLAG antibody (Rockland) at 1:1000 dilution in sample buffer. Kinetic experiments were performed with the “Kinetics Injection” method defined in the KinExA software. Data were analyzed with KinExA Pro Software. The Kd was determined from a global fit of two concentration curves using the “n-curve analysis” tool and the titrant concentrations as reference. […] The kₒₙ was calculated as a fit of the pre-equilibrium free ligand concentrations to the bimolecular binding equation using the “Kinetics Injection” tool.

[15] = biological target: B1; experiment: KinExA Kinetics Injection
Procedure: as §6, §7

[16] = biological target: T4, VEGFR2-His (residues 1-764 of VEGFR2, …); experiment: KinExA, equilibrium titration in solution, n-curve analysis
Procedure: as §1, §2

[17] = biological target: T2, human VEGFR on human umbilical vein …; experiment: flow cytometry on HUVECs
Procedure: as §3, §4

[18] = biological target: T4, VEGFR2-His (residues 1-764 of VEGFR2, …); experiment: KinExA, calculated from Kd and kon
Procedure: (§8) By performing two experiments with fixed ligand concentrations above and below the Kd, and fitting both sets of data with a nonlinear regression analysis, a more accurate measurement for the affinity can be obtained.
as §6, §7

[19] = biological target: B1; experiment: KinExA, calculated from Kd and kon
Procedure: as §8, §6, §7

B1
EC50 (read off the curve) (scPDGF, yeast-displayed): ~300 nM

B2
kon [1]: > 1.7e+07 M⁻¹ s⁻¹ | EC50 of receptor activation, DiscoveRx PathHunter PDGFR reporter cells, chemiluminescence [2]: 0.14 nM | koff [3]: > 0.31 s⁻¹ | Kd [4]: 18 nM

B3
EC50 (read off the curve) [5]: ~10 nM | Kd [6]: 1.5 nM | Kd [7]: 10 nM | Kd [8]: 18 nM

B4
EC50 (read off the curve) [9]: ~0.5 nM | EC50 (read off the curve) [5]: ~0.8 nM | fold improvement in affinity compared to PV6 [10]: 2700 fold | fold improvement in binding affinity compared to PV6 [11]: 130 fold | fold improvement in affinity compared to PV6 [12]: 78 fold | IC50 of inhibition of stimulation by 0.5 nM PDGF-BB, PathHunter PDGFRβ reporter cells [2]: 1.1 nM | IC50 of inhibition of HUVEC proliferation induced by 0.5 nM VEGF165, alamarBlue [13]: 1.2 nM | kon [14]: 680000 M⁻¹ s⁻¹ | kon [15]: 2e+07 M⁻¹ s⁻¹ | Kd [16]: 0.014 nM | Kd [4]: 0.0067 nM | fold improvement in affinity compared to PV6 [17]: 14 fold | koff [18]: 9.6e-06 s⁻¹ | koff [19]: 0.00013 s⁻¹ | Kd [7]: 0.45 nM | Kd [8]: 0.77 nM
